For the data set, the system named is MS2 coat protein. Description: apparent KD of MS2 coat protein; higher = weaker reporter binding. As to conditions: Eterna round: R107. On the procedure: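 RNA-MaP round R107: designed RNA switches with theophylline, tryptophan, arginine or FMN aptamers are transcribed on-chip within common flanks. They are titrated with SNAP-549-labelled MS2 coat protein in RNA-MaP buffer (100 mM Tris pH 7.5, 80 mM KCl, 4 mM MgCl2), without ligand or with the indicated ligand. Median apparent KD per design.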

[1] abbreviates: input ligand: theophylline 20 uM.
Setting [2] is: input ligand: theophylline 2 mM.
Setting [3] is: input ligand: tryptophan 2.4 mM.

With “AUACAUGAGGAUCACCCAUGUCCUCGUGAUCGAGGACCGGUACGGCCGCCACUCGGUCCUCGCGAGGAGGAGUCAAAGACUCCAA [Omei Trp A SS A v4]”, the “apparent KD of MS2 coat protein” value was found to be 38.5 nM (input ligand: arginine 13.2 mM); 82.9 nM (input ligand: none); 111 nM under setting [1]; 113 nM under setting [2]; 53.8 nM under setting [3].
Turning to “AUACCACCUUCGGCCGCCACUAUGUAUGGGUUCCCAACGUUGAAGGACAUGAGGAUCACCCAUGUUAGGACCGGGAAAAGUGCCU [theeternabot_exclusion_MS2_Trp_B_17]”, the “apparent KD of MS2 coat protein” value runs as follows: (input ligand: arginine 13.2 mM) 45.3 nM; under setting [1], 106 nM; under setting [2], 103 nM.
In the same order, the values of “AUAUAUACAUGAGGAUCACCCAUGUUAUUUCGAGGACCGGUACGGCCGCCACUCGAUAGAGUAGAAGUAAAUUUUGUUACAUGUA [JR_SSTryptoA_Sub010]” are 10.4 nM, 13.7 nM and 10.8 nM.
For “AUAUAUACAUGAGGAUCACCCAUGUUAUUUCGAGGACCGGUACGGCCGCCACUCGAUAGAGUAGAAGUAACAUGUGUUAGUUGAU [JR_SSTryptoA_Sub014]”, the “apparent KD of MS2 coat protein” value was 16.3 nM (input ligand: arginine 13.2 mM), 32.8 nM under setting [1] and 39.1 nM under setting [2].
On to “AUAUUAAUCGGAAGGAGCGGUACAUGAGGAUCACCCAUGUGUGAAGCGAGCAGAUCCCGUUACCAGGUAGGUCGCCGAGUUAUGA [XArg-B6]”, for which the “apparent KD of MS2 coat protein” value (input ligand: arginine 13.2 mM) was 85.4 nM; the “apparent KD of MS2 coat protein” value (input ligand: none) turned out to be 213 nM; the “apparent KD of MS2 coat protein” value under setting [1] was 229 nM; the “apparent KD of MS2 coat protein” value under setting [2] turned out to be 187 nM; the “apparent KD of MS2 coat protein” value under setting [3] was 148 nM.
Turning to “AUCGUACCUGAGGAUACCAGCAUGUGAUCAUAACAUGAGGAUCACCCAUGUAAUCAGUGAUGCCCUUGGCAGCUUGGUCGAUACA [Same State - Theophylline B (Freestyle 9)]”, the “apparent KD of MS2 coat protein” value was determined as 42.5 nM (input ligand: arginine 13.2 mM), 75 nM under setting [1] and 46.2 nM under setting [3].
As for “AUCUUGUACCGUAAUACUUUACGUUGGGAUACCAGCAUGGACCCAUGCCCUUGGCAGCUUUACAUGAGGAUCACCCAUGUUGUAG [SSTheo A #28]”, the “apparent KD of MS2 coat protein” value (input ligand: arginine 13.2 mM) turned out to be 26.3 nM, the “apparent KD of MS2 coat protein” value under setting [1] came out at 42.2 nM and the “apparent KD of MS2 coat protein” value under setting [3] worked out at 39.9 nM.
Take “AUGUCUGAGUCGGCCGCCACUGGGUGUGGGUGAUGCCGGAUGUUGUACAUGAGGAUCACCCAUGUCAGGACCGGGAUUCCCACGA [Receve]”: the “apparent KD of MS2 coat protein” value reads like this: (input ligand: arginine 13.2 mM) 6.2 nM; (input ligand: none) 10.4 nM; under setting [1], 12.7 nM; under setting [2], 8.73 nM; under setting [3], 10.2 nM.
In the case of “AUUAUCAUGGUCAUAUAUAUAUCUUCAGAUACCAGACUAUAUUAAGUCCCUUGGCAGCUGUUACAUGAGGAUCACCCAUGUUAUA [JR_ExcTheophyA_Sub014]”, the “apparent KD of MS2 coat protein” value (input ligand: arginine 13.2 mM) came to 53.9 nM, the “apparent KD of MS2 coat protein” value under setting [1] turned out to be 76.1 nM and the “apparent KD of MS2 coat protein” value under setting [3] came to 102 nM.
Turning to “AUUAUCAUGGUCAUAUAUAUUUCGUCAGAUACCAGACUAGAUAUAGUCCCUUGGCAGCUGUUACAUGAGGAUCACCCAUGUUAUA [JR_ExcTheophyA_Sub016]”, the “apparent KD of MS2 coat protein” value by setting is: (input ligand: arginine 13.2 mM) 55 nM; under setting [1], 76.8 nM; under setting [3], 93.3 nM.
In the same order, the values of “AUUUAUUGUCGUGAUACCAGACAUACAUGAGGAUCACCCAUGUUAAGUAACUUUUUUCAGGUCCCUUGGCAGCACUUUUUAAUUA [JR_Nu_SSTheophyB_Sub019]” are 21.1 nM, 23.8 nM and 18.1 nM.
For “AUUUUUCUAUCAGAUACCAGACAAUUUUAGACAUGAGGAUCACCCAUGUAUAGGGUGUUCGUCCCUUGGCAGCUGUUAAGUUUAA [JR_SSTheophyB_Sub004]”, in that order: 62 nM, 152 nM and 182 nM.
Regarding “CAAUGCAGGUCGGCCGCCACUACACACAUGAGGAUCACCCAUGUAGUUACUGGGUGAAGUGGCAGUAGGACCGGGACCUGCAUAA [Brourdmod02]”, the “apparent KD of MS2 coat protein” value is, setting by setting: (input ligand: arginine 13.2 mM) 143 nM; under setting [1], 417 nM; under setting [2], 568 nM.
Turning to “CACAAUUUGUCGGCCGCCACUAAGGUAACUUUUCUCACAUGAGGAUCACCCAUGUGCCCGAAACUUAGGACCGGGAUAAUGGGUG [Usteraor]”, the “apparent KD of MS2 coat protein” value (input ligand: arginine 13.2 mM) worked out at 35.9 nM, the “apparent KD of MS2 coat protein” value under setting [1] is 146 nM and the “apparent KD of MS2 coat protein” value under setting [2] was 183 nM.
For “CACAGUGCGAAAUUGAAUUCGCACGAUCCUCGAGGACCGGUACGGCCGCCACUCGCGCGGGUCGUACAUGAGGAUCACCCAUGUC [Zatiin]”, in that order: 41.3 nM, 419 nM and 477 nM.
As to “CACAUGAGGAUCACCCAUGUCUGAACUGAAGGAGCGCUAAACAAGGCAGGUAGGUCGCGGAAUCUUGUGUGCAUAUGCACACGGG [9.S]”, the “apparent KD of MS2 coat protein” value is 18.4 nM (input ligand: arginine 13.2 mM); 18.2 nM (input ligand: none); 27.4 nM under setting [1]; 22.7 nM under setting [2]; 19.9 nM under setting [3].
As for “CACGAAAGAUCGGCCGCCACUAUUUGAUGUGUUCUUUCACAUGAGGAUCACCCAUGUUCUUAUUUUAGGACCGGGAUUGAGCGUG [ETB #2]”, the “apparent KD of MS2 coat protein” value (input ligand: arginine 13.2 mM) stood at 72.7 nM, the “apparent KD of MS2 coat protein” value under setting [1] turned out to be 142 nM and the “apparent KD of MS2 coat protein” value under setting [2] is 145 nM.
As for “CACGAAAGAUCGGCCGCCACUAUUUGAUGUGUUCUUUCACAUGAGGAUCACCCAUGUUCUUUCUUUAGGACCGGGAUUGAGCGUG [ETB #1]”, the “apparent KD of MS2 coat protein” value reads like this: (input ligand: arginine 13.2 mM) 88.8 nM; under setting [1], 126 nM; under setting [2], 162 nM.
